According to EP4803150A2 (Lyvgen Biopharma Holdings Limited, dated 2026):
Residue numbers refer to the chain shown, from its start.

T1: CD3 (human)
T1 chain: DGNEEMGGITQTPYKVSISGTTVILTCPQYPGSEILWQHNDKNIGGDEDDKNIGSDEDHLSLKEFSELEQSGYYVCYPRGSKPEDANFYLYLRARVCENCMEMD

B1: Ly2600 (multi-specific antibody)
chain 1: QVQLVQSGAEVKKPGASVKVSCKASGYTFTSYVMHWVRQKPGQGLEWIGYINPYNEGTESTDKFKGRATMTSDKSTSTVYMELSSLRSEDTAVYYCASIYYGYEGTYFGVWGQGTLVTVSSASTKGPSVFPLAPSSKSTSGGTAALGCLVKDYFPEPVTVSWNSGALTSGVHTFPAVLQSSGLYSLSSVVTVPSSSLGTQTYICNVNHKPSNTKVDKKVEPKSCGGGGSGGGGSGGGGSGGGGSEVQLVESGGGLVQPGGSLRLSCAASGFTFSTYAMNWVRQAPGKGLEWVGRIRSKYNNYATYYADSVKGRFTISRDDSKNSLYLQMNSLKTEDTAVYYCVRHGNFGNSYVSWFAYWGQGTLVTVSSGGGGSDKTHTCPPCPAPELLGPSVFLFPPKPKDTLMISRTPEVTCVVVDVSHEDPEVKFNWYVDGVEVHNAKTKPREEQYNSTYRVVSVLTVLHQDWLNGKEYKCKVSNKALGAPIEKTISKAKGQPREPQVYTLPPSREEMTKNQVSLWCLVKGFYPSDIAVEWESNGQPENNYKTTPPVLDSDGSFFLYSKLTVDKSRWQQGNVFSCSVMHEALHNHYTQKSLSLSPGGGGGSGGGGSGGGGSGGGGSQVQLVQSGAEVKKPGASVKVSCKASGYTFAGFEMHWVRQAPGQGLEWMGAIDPKTGGTDYNQKFKDRVTMTRDTSISTAYMELSRLRSDDTAVYYCARDLGYFDVWGQGTLVTVSS
chain 2: QVQLVQSGAEVKKPGASVKVSCKASGYTFTSYVMHWVRQKPGQGLEWIGYINPYNEGTESTDKFKGRATMTSDKSTSTVYMELSSLRSEDTAVYYCASIYYGYEGTYFGVWGQGTLVTVSSASTKGPSVFPLAPSSKSTSGGTAALGCLVKDYFPEPVTVSWNSGALTSGVHTFPAVLQSSGLYSLSSVVTVPSSSLGTQTYICNVNHKPSNTKVDKKVEPKSCGGGGSGGGGSGGGGSGGGGSQAVVTQEPSLTVSPGGTVTLTCRSSTGAVTTSNYANWVQQKPGQAPRGLIGGTNKRAPWTPARFSGSLLGGKAALTITGAQAEDEADYYCALWYSNLWVFGGGTKLTVLGGGGSDKTHTCPPCPAPELLGPSVFLFPPKPKDTLMISRTPEVTCVVVDVSHEDPEVKFNWYVDGVEVHNAKTKPREEQYNSTYRVVSVLTVLHQDWLNGKEYKCKVSNKALGAPIEKTISKAKGQPREPQVYTLPPSREEMTKNQVSLSCAVKGFYPSDIAVEWESNGQPENNYKTTPPVLDSDGSFFLVSKLTVDKSRWQQGNVFSCSVMHEALHNHYTQKSLSLSPGGGGGSGGGGSGGGGSGGGGSDIQMTQSPSSLSASVGDRVTITCRASQDIRSNLNWYQQKPGGAVKLLIYYTSRLHSGVPSRFSGSGSGTDYTLTISSLQPEDFATYFCQQSEKLPRTFGGGTKVEIR
chain 3: EIVLTQSPATLSLSPGERATLSCRASSSVSYMHWYQQKPGQAPRPWIYATSNLASGIPARFSGSRSGTDYTLTISSLEPEDFAVYYCQQWSSNTLTFGGGTKVEIKRTVAAPSVFIFPPSDEQLKSGTASVVCLLNNFYPREAKVQWKVDNALQSGNSQESVTEQDSKDSTYSLSSTLTLSKADYEKHKVYACEVTHQGLSSPVTKSFNRGEC
notes: B7H3/CD3/CD137
B2: Ly2937 (multi-specific antibody)
chain 1: not shown
chain 2: QVQLVQSGAEVKKPGASVKVSCKASGYTFTSYVMHWVRQKPGQGLEWIGYINPYNEGTESTDKFKGRATMTSDKSTSTVYMELSSLRSEDTAVYYCASIYYGYEGTYFGVWGQGTLVTVSSASTKGPSVFPLAPSSKSTSGGTAALGCLVKDYFPEPVTVSWNSGALTSGVHTFPAVLQSSGLYSLSSVVTVPSSSLGTQTYICNVNHKPSNTKVDKKVEPKSCGGGGSGGGGSGGGGSGGGGSQIVLTQSPAIMSASPGEKVTMTCSASSSVSYMNWYQQKSGTSPKRWIYDTSKLASGVPAHFRGSGSGTSYSLTISGMEAEDAATYYCQQWSSNPFTFGSGTKLEINGGGGSDKTHTCPPCPAPELLGPSVFLFPPKPKDTLMISRTPEVTCVVVDVSHEDPEVKFNWYVDGVEVHNAKTKPREEQYNSTYRVVSVLTVLHQDWLNGKEYKCKVSNKALGAPIEKTISKAKGQPREPQVYTLPPSREEMTKNQVSLSCAVKGFYPSDIAVEWESNGQPENNYKTTPPVLDSDGSFFLVSKLTVDKSRWQQGNVFSCSVMHEALHNRFTQKSLSLSPGKGGGGSGGGGSGGGGSGGGGSDIQMTQSPSSLSASVGDRVTITCRASQDIRSNLNWYQQKPGGAVKLLIYYTSRLHSGVPSRFSGSGSGTDYTLTISSLQPEDFATYFCQQSEKLPRTFGGGTKVEIR
chain 3: B1 chain 3
notes: B7H3/CD3/CD137
B3: Ly2936 (multi-specific antibody)
chain 1: QVQLVQSGAEVKKPGASVKVSCKASGYTFTSYVMHWVRQKPGQGLEWIGYINPYNEGTESTDKFKGRATMTSDKSTSTVYMELSSLRSEDTAVYYCASIYYGYEGTYFGVWGQGTLVTVSSASTKGPSVFPLAPSSKSTSGGTAALGCLVKDYFPEPVTVSWNSGALTSGVHTFPAVLQSSGLYSLSSVVTVPSSSLGTQTYICNVNHKPSNTKVDKKVEPKSCGGGGSGGGGSGGGGSGGGGSEVQLVESGGGLVQPGGSLRLSCAASGFTFSTYAMNWVRQAPGKGLEWVGRIRSKYNNYATYYADSVKGRFTISRDDSKNSLYLQMNSLKTEDTAVYYCVRHGNFGNSYVSWFAYWGQGTLVTVSSGGGGSDKTHTCPPCPAPELLGPSVFLFPPKPKDTLMISRTPEVTCVVVDVSHEDPEVKFNWYVDGVEVHNAKTKPREEQYNSTYRVVSVLTVLHQDWLNGKEYKCKVSNKALGAPIEKTISKAKGQPREPQVYTLPPSREEMTKNQVSLWCLVKGFYPSDIAVEWESNGQPENNYKTTPPVLDSDGSFFLYSKLTVDKSRWQQGNVFSCSVMHEALHNHYTQKSLSLSPGKGGGGSGGGGSGGGGSGGGGSQVQLVQSGAEVKKPGASVKVSCKASGYTFAGFEMHWVRQAPGQGLEWMGAIDPKTGGTDYNQKFKDRVTMTRDTSISTAYMELSRLRSDDTAVYYCARDLGYFDVWGQGTLVTVSS
chain 2: QVQLVQSGAEVKKPGASVKVSCKASGYTFTSYVMHWVRQKPGQGLEWIGYINPYNEGTESTDKFKGRATMTSDKSTSTVYMELSSLRSEDTAVYYCASIYYGYEGTYFGVWGQGTLVTVSSASTKGPSVFPLAPSSKSTSGGTAALGCLVKDYFPEPVTVSWNSGALTSGVHTFPAVLQSSGLYSLSSVVTVPSSSLGTQTYICNVNHKPSNTKVDKKVEPKSCGGGGSGGGGSGGGGSGGGGSQAVVTQEPSLTVSPGGTVTLTCRSSTGAVTTSNYANWVQQKPGQAPRGLIGGTNKRAPWTPARFSGSLLGGKAALTITGAQAEDEADYYCALWYSNLWVFGGGTKLTVLGGGGSDKTHTCPPCPAPELLGPSVFLFPPKPKDTLMISRTPEVTCVVVDVSHEDPEVKFNWYVDGVEVHNAKTKPREEQYNSTYRVVSVLTVLHQDWLNGKEYKCKVSNKALGAPIEKTISKAKGQPREPQVYTLPPSREEMTKNQVSLSCAVKGFYPSDIAVEWESNGQPENNYKTTPPVLDSDGSFFLVSKLTVDKSRWQQGNVFSCSVMHEALHNRFTQKSLSLSPGKGGGGSGGGGSGGGGSGGGGSDIQMTQSPSSLSASVGDRVTITCRASQDIRSNLNWYQQKPGGAVKLLIYYTSRLHSGVPSRFSGSGSGTDYTLTISSLQPEDFATYFCQQSEKLPRTFGGGTKVEIR
chain 3: B1 chain 3
notes: B7H3/CD3/CD137
B4: Ly1966 (multi-specific antibody)
chain 1: QVQLQQSGAELVRPGSSVKISCKASGYAFSSYWMNWVKQRPGQGLEWIGQIWPGDGDTNYNGKFKGKATLTADESSSTAYMQLSSLASEDSAVYFCARRETTTVGRYYYAMDYWGQGTTVTVSSASTKGPSVFPLAPSSKSTSGGTAALGCLVKDYFPEPVTVSWNSGALTSGVHTFPAVLQSSGLYSLSSVVTVPSSSLGTQTYICNVNHKPSNTKVDKKVEPKSCGGGGSGGGGSGGGGSGGGGSEVQLVESGGGLVQPGGSLRLSCAASGFTFSTYAMNWVRQAPGKGLEWVGRIRSKYNNYATYYADSVKGRFTISRDDSKNSLYLQMNSLKTEDTAVYYCVRHGNFGNSYVSWFAYWGQGTLVTVSSGGGGSDKTHTCPPCPAPEAAGPSVFLFPPKPKDTLMISRTPEVTCVVVDVSHEDPEVKFNWYVDGVEVHNAKTKPREEQYNSTYRVVSVLTVLHQDWLNGKEYKCKVSNKALPAPIEKTISKAKGQPREPQVYTLPPSREEMTKNQVSLWCLVKGFYPSDIAVEWESNGQPENNYKTTPPVLDSDGSFFLYSKLTVDKSRWQQGNVFSCSVMHEALHNHYTQKSLSLSPGGGGGSGGGGSGGGGSGGGGSQVQLVQSGAEVKKPGASVKVSCKASGYTFAGFEMHWVRQAPGQGLEWMGAIDPKTGGTDYNQKFKDRVTMTRDTSISTAYMELSRLRSDDTAVYYCARDLGYFDVWGQGTLVTVSS
chain 2: QVQLQQSGAELVRPGSSVKISCKASGYAFSSYWMNWVKQRPGQGLEWIGQIWPGDGDTNYNGKFKGKATLTADESSSTAYMQLSSLASEDSAVYFCARRETTTVGRYYYAMDYWGQGTTVTVSSASTKGPSVFPLAPSSKSTSGGTAALGCLVKDYFPEPVTVSWNSGALTSGVHTFPAVLQSSGLYSLSSVVTVPSSSLGTQTYICNVNHKPSNTKVDKKVEPKSCGGGGSGGGGSGGGGSGGGGSQAVVTQEPSLTVSPGGTVTLTCRSSTGAVTTSNYANWVQQKPGQAPRGLIGGTNKRAPWTPARFSGSLLGGKAALTITGAQAEDEADYYCALWYSNLWVFGGGTKLTVLGGGGSDKTHTCPPCPAPEAAGPSVFLFPPKPKDTLMISRTPEVTCVVVDVSHEDPEVKFNWYVDGVEVHNAKTKPREEQYNSTYRVVSVLTVLHQDWLNGKEYKCKVSNKALPAPIEKTISKAKGQPREPQVYTLPPSREEMTKNQVSLSCAVKGFYPSDIAVEWESNGQPENNYKTTPPVLDSDGSFFLVSKLTVDKSRWQQGNVFSCSVMHEALHNRFTQKSLSLSPGGGGGSGGGGSGGGGSGGGGSDIQMTQSPSSLSASVGDRVTITCRASQDIRSNLNWYQQKPGGAVKLLIYYTSRLHSGVPSRFSGSGSGTDYTLTISSLQPEDFATYFCQQSEKLPRTFGGGTKVEIR
chain 3: not shown
notes: CD19/CD3/CD137
B5: Ly1967 (multi-specific antibody)
chain 1: B4 chain 1
chain 2: B4 chain 2 with R575H, F576Y
chain 3: not shown
notes: CD19/CD3/CD137

Legend:
[1] = target: T2, CD137 (human, UniProt Q07011 24-186); test: FCM or ELISA, graded
T2 construct: Whole on GS-H2-huCD137 reporter cells in the reporter assays; also called 4-1BB

[2] = target: T1, CD3; test: CD3 binding as in Example 2 (ELISA or FCM)

Row | Binder | binding result [1] | EC50 [2] [µg/mL]
1 | B1 | binds | 
2 | B2 | binds | 
3 | B3 | binds | 
4 | B4 |  | 0.348
5 | B5 |  | 1.56
